# Results published in the nanobody polyreactivity screen of Harvey et al. (2022).
# Experiment: yeast display, Sf9 membrane polyspecificity reagent, FACS + sequencing; frameworks hold sequencing errors
# Procedure, shortened: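 Using colony PCR, genes from sorted yeast display clones were amplified, then sequenced on MiSeq at 2 × 250 and filtered by CDR length. The clones had been stained with 10% biotinylated, detergent-solubilized Sf9 membrane reagent for 1 hour at 4 °C and sorted by FACS into low and high (top ~1%) gates on anti-HA and streptavidin fluorescence. Polyreactivity labels come from the gate of origin.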
row,Sequence,polyreactivity (PSR sort gate)
1,QVQHVESGGGLVQAGGSLRLSCAASGSTFVVYAMGWYRQAPGKERELVAAINWSGGSTYYADSVKGRFTISRDNAKNTVYLQMNSLKPEDTAVYYCSAYGVTYRGDYDYWGQGTQVTVSS,low polyreactivity
2,QVQVVESGGGLVQAGGSLRLSCAASGSIFGRYAMGWYRQAPGKERELVAGITRGGSPYYADSVKGRFTISRDNAKNTVYLQMNSLKPEDTAVYYCNRAARYGEYDYWGQGTQVTVSS,high polyreactivity
3,QVQLVESGGGLVQAGGSLRLSCAASGRNFFYALGWYRQAPGKERELVASITTSGTSTYYADSVKGRFTISRDNAKNIVYLQMNSLKPEDTAVYYCNATSNSIRWYDLYYWGQGTKVTVSS,low polyreactivity
4,QVQLVESGGGLVQAGGSLRLSCAASGSIFGYYAMGWYRQAPGKERELVAAITSDGSTYYADSVKGRFTITRDNAKNTVNLQMNSLKPEDTAVYYCAAYSWYYTSRYDYWGQGTQVTVSS,low polyreactivity
5,QVQIEESGGGLVQAGGSIRLSCAASGRIFFLNAMGWYRQAPGKERELVAAISKSGGSTYYADSEKGRFTISRDNAKNTGFLQMNSLKPEDTAVYYCAARLHRFIRVDFGYDYWGQGTQVTVSS,high polyreactivity
6,QVQHVESGGGLVQAGGSLRLSCAASGSIFRWYAMGWYRQAPGKERELVAGITSGGSTNYADSVKGRFTISRDNAKNTVYLQMNSLKPEDTAVYYCNARRWVGSRYDYWGQGTQVTVSS,high polyreactivity
7,QVQLVESGGGLVQAGGSLRLSCAASGSTFYYYAMGWYRQAPGKERELVAAINSSGGNTYYADSVKGRFTISRDNAKNTVYLQMNSLNPEDTAVYYCATEYYWLQDYDYWGHGTQVTVSS,low polyreactivity
8,QVHLVESGGGLVQAGGSLRISCAASGRIFWWYAMGWYRQAPGKERELVAAISTGSRTYYADSVKGRFTISRDNAKNTVFLQMNRLKPEDTAVYYCVADGLYSVSRSSIFEYWGHGTQVTVSS,low polyreactivity
9,QVQLQESGGGLVQAGGSLRLICAASGTIFSARFMGWYRQAPGKERELVATITDGGNTNHADSVKGRFTISRDNAKNTVYLKMYSLKPEDAAVYYCAAGEVDNDTLLFWGQGSQVTVSS,low polyreactivity
10,QVQLVESGGGLVHAGGSLRLSCAASGSTLGSYAMGWYRQAPGKERELVARITTGGGTSYADSVKGRFTISRDNAKNTVYLQMNSLKPEDTAVYYCAATFIYGARTYGYWGQGTQVTVSS,high polyreactivity
11,QVQLVESGGGLVQAGGSLRLSCAASGSTYGIYAMGWYRQAPGKERELVAAITLRTDSTYYADSVKGRFTISRDNAKNTVYLQMNSLKPEVTAVYYCARRYRYGYDYWGQGTQVTVSS,low polyreactivity
12,QVQHVESGGGLVQAGGSLRLSCAASGSTFARYGLGWYRQAPGKERELVASLTYTGGRTYADSVKGRFTFSRDNAKNTVYLQMNSLKPEDTAVYYCAARYRLWGQGTQVTVSS,low polyreactivity
13,QVQLVESGGGLVHAGGSLRISCAASGRTFWVYAMGWYRKAPGKERELVAAISWSGGRTYYADSVKGRFTISRDNAKNTVYLQMNSLKPEDTAVYYCAATTGVRSRRYYYWGQGTQVTVSS,low polyreactivity
14,QVQLVESGGGLVQAGGSHRLSCAASGRILYGYAMGWYRQAPGQERELVASITWSGGSTYADSVKGRFTISRDNAKNTVYLQMKSLKPEDTAVYYCATRRGPKWQWLTYGYWGLGTQVTVSS,low polyreactivity
15,QVQLVESGGGLVQAGGSLRLSCAASGNIFYTYAMGWYRQAPGNERELVAGISSDASTTYADSVKGRFTISRDNAKNTVYLPMKSLNPEDTAVYYCPADITGIVWYVYYYWGQGTQVTVSS,low polyreactivity
16,QVQLVESGGGLVQAGGSLRLSCAASGSIFEINAMGWYRQAPGKERELVAAITQSGGITYYADSVKGRFTISRDNAKNTVYLQINSLKPEDTAVYYCNTPLLKRTTRGRERNYWGQGTQVTVSS,low polyreactivity
17,QVQLVESGGGLVQAGGSLRLSCAASGRIFRSNAMGWYSQAPGKERELVAAITLRGGSTFYADSVKGRFTISRDNAKNTVYLQMNSLKPEDTAVYYCAARSYWSRSIWSPYDYWGQGTQVTVSS,high polyreactivity
18,QVQLVESGGGLVQAGGSLRLSCADSGSIFTYTMGWYRQAPGKERELVAVISRSGGRTYYADSVKGRFTISRDNAKNTVYLQMNSLKPEDTAVYYCATDGHNGYYGRYDYWGQGTQVTVSS,high polyreactivity
19,QVQLVESGGGLVQAGGSLSLICAASGSTILYNTMGWYRQAPGKERELVATITSRGDRTYYADSVKGRFTISRDNAKNTVYLQMNSLKPDDTAVYYCNAYGGNYPQSYRYYYWGQGTQVTVSS,low polyreactivity
20,QVQLVETGGGLFQAGGSLRLSCAASGSTFVYYAMGWYRQPPGKERELVAAISSGGNTKYADSVKGRFTISRDNAKNTFYLQMNSLKPEDTAVYYCARETQSYYDHDYWGQGTQVTLSS,low polyreactivity
21,QVQLVESGGGLVQAGGSLRLSCAASGFTFSLYGMGWYRQAPGKERELVAAIRSGGSRNYADSVKGRFTISRDNAKNTVYLQMNSLKPEDTAVYYCATDIHSVHNNRDKHDYDYWGQGTQVTVSS,low polyreactivity

row,Sequence,polyreactivity (PSR sort gate)
1,QVQLVESGGGLVQAGGSLRLSCAASGITFRGYAMGWYRQAPGKERELVAAITGSGTSTYADSVKGRFTISRGNAKNTVYLQMNSLKPEDTAVYYCAADTYDPFYYGYGYWGQGTQVTVSS,low polyreactivity
2,QVQLVESGGGLVQAGGSRRLSCAASGRIFRGYAMGWYRQAPGKERELVAAISASGGSTYYADSVKGRYTISRDIAKNTVYLLMISLKQVDTAVYYCATGGYARYDFWGQGTQVTVSS,high polyreactivity
3,QVQLVESGGGLVQAGGTLRLSCAASGSIFNPYAMGWYRQAPGKDRELVATITRPGRTNYADSVKGRFTISRDHAENTVYLQMNSLKPEDTAVYYCAAYTSYGVYYWGQGTQVTVSS,high polyreactivity
4,QVQLVESGGGLVQAGGSLRLSCAASGYTFRRYAMGWYRQAPGKERELVAAITSRGGSTYYADSVKGRFTISRDNAKNTVYLQMNSLKPEDTAVYYCAADASAYSVLTRDYWGQGTQVTVSS,high polyreactivity
5,QVQLVESGGCLVQAGGSLRLSCDASGSIFYRNVIGWYRQAPGKERELVATISRGGTTNYADSVKGRFTISRDNAKNTVYLQMNSLKPEDTAVYYCAADASSKLYDYWGQGTQVTVSS,low polyreactivity
6,QVQLVESGGGLVQAGGSLGLSCAASGFIFYAYVMGRYRQAPGKERELVAAISRNGGSTYYADSVKGRFTISRDNAKKSVYLQMNSLKPEDTAVYYCAALSYYRYSQEDDYWGQGTQVTVSS,high polyreactivity
7,QVQLVESGGGLGQAGGSLRLSCAASGRIFSYNSMGWYRPATGKERELVAAISTSGGSTYYADSVKGRFTISRDYAKNTVYLQLISLKPEDTAVYYCNARAPFSSAQPTFLIDDGYHWGQGTQETVSS,low polyreactivity
8,QDQLVDSGGGLVQAGGSLRLSCAASGRTFESYAMGWYRQAPGKERELVAAISYSGGSTYYADSVKGRFTISRDNAKNTVYLQMNSLKPEDTAVYYCAVRWRYKYDYWGQGTQVTVSS,high polyreactivity
9,QVQLVESGGGLVQAGGSLRLSCAASGSTFYRNAMGWYRQAPGKERELVAAISTSGGSTYYADSVKGRFTISRDNAKNTVYLQMNSLKPEDTAVYYCATDSYYFDVMYGWKEYDYWGQGTQVTVSS,high polyreactivity
10,QVQLVESGGGLVQAGGSLRLSCAASGSTFVSYAMGWYRQAPGKERELVAGITRRGGTTYYADSVKGRFTISRDNAKNTVYLQMNSLKPEDTAVYYCARYSLYTGYRRYPLDYDYWGQGTQVTVSS,high polyreactivity
11,QVQLVESGGGLVQAGGSLRLSCAASGRTFRVYAMGGYRQAPGTERELVASISRRGAATYYADSVKGRFTISRDNAKNTVYRQMNSLKPEDTAVSDCAADRPYYSVSPNTEFEYWGQGTQVTVSS,high polyreactivity
12,QVQLVESGGGLVQAGGSLRLSCAASGFIFRSYDMGWYRQAPGKERELVAAITRGGRTYYADSVKGRFTISRDNAKNTVYLQMNSLKPEDTAVYYCAARGTHVADGYYWGQGTQVTVSS,high polyreactivity
13,QVELVESGGGLDQAGGSLRLSCAASGFIFRWYAMGWYRQAPGKERELVAAITRGTRTNYADSVKGRFTISRDNAKNTVYLQMNSLKPEDTAVYYCAADFSRDAYRNYYYWGQGTQVTVSS,high polyreactivity
14,QVQLVESGGGLVQAGGSLRLSCAASGRIFYTNAMGWYRQAPGKERELVATISGSGGNTYYADSVKGRFTISRDNAKNTVYLQMNSLKPEDTAVYYCAKAYYTPYGVYVLHYYWGQGTQVTVSS,high polyreactivity
15,QVQLVESGGGLVQAGGSLRLSCAASGFTFAYYAMGWYRQAPGKERELVAGISWRGGRTYYADSVKGRFTISRDNAKNTVYLQMNSLKPEDTAVYYCAKQPGNFGRFDYWGQGTQVTVSS,high polyreactivity
16,QDQLVESGGGFVQAGGSLRLSCAASGSIFLINAMGWYRQAPGKERELVAAISWRGGTTYYADSVKGRFTISRDNAKNSVYLQLNSLKPEDTAVYYCAAYGGRFRGPTRYDYWVQGTQVTVSS,high polyreactivity
17,QVQLVESGGGLVQAGGSLRLSCAASGLIFRHYAMGWYRQAPGKERELVAAINWDGTSTDYADSVKGRFTISRDNAKNTVYLQMNSLKPEDTAVYYCAAEGHTAFVVYRVSPLQYDYWGHGTQVTVSS,low polyreactivity
18,QVQLEESGGGLVQAGGSLRLSCAASGFIFGPYAMGWYRQAPGKERELVAAMSSSGGSTSYEDSVKGRFTISRDNAKNTVYLQMNSLKPEDTAVYYCAARGRYRLYSNYYDYWGQGTQVNVSS,high polyreactivity
19,QVQLVESGGGLVQAGGSLRLSCAASGSTFPWYAMGWYRQAPGKERELVAAISFSGGSTYYADSVKGRFTISRDNAKNTVYFQMNSLKPEDTAVYYCAAVWGYVIWVDTAVYREYDYWGQGTQVTVSS,high polyreactivity
20,QVQLVESGGGLVQAGGSLRLSCAASGSTISYYAMGWYIQAPGKERELVAAISQTGGTTYYADSVKGRFTISRDNAKNTVYLQMNSLKPEDTAVYYCNAARPGGHYWGQGTQVTVSS,low polyreactivity
